According to patent publication EP0485563B1, “POLYETHER-SUBSTITUTED TUMOR AGENTS” (Deutsches Krebsforschungszentrum Stiftung des öffentlichen …, priority 1990, dated 1991):

Tests used:
[1] = Photodynamic activity of the photosensitiser
[2] = tested on: Ovarialcarcinom; experiment: Whole-body distribution of radioiodine-labelled agent in tumour-bearing rat (Fig. 4, Fig. 5); format: in vivo, BD IX Ratte
Method: (§1) Bei allen diesen Anwendungsversuchen wurden immer 300 µC = 11,1 MBq verabreicht. ES zeigten sich mit den eingesetzten Mitteln, nämlich 1a und 1c und die Verbindung aus Beispiel 2 eine Konzentration von mindestens 30 % des Mittels an der gewünschten Stelle, also am Tumor. Die beigefügte Fig. 4 zeigt das Bild einer BDIX-Rattemit Ovarialcarcinom 42 h nach Injektion, die mit ¹³¹J-HOPAD-CMPEG, also ¹³¹J-Hydroxyphenyl-1-aminomethan-1,1-diphosphonat- Cyanurchlorid aktiviertes Polyethylenglykol (n = ca. 100 bis 110) in einer Menge von 300 µC behandelt war. Das Bild zeigt, daß ganz unten, im Tumor ca. 30 +/- 2 % des Mittels konzentriert sind, während in der Mitte die Leber ca. 10 % zeigt und die Schilddrüse, die oberhalb der Leber sichtbar ist, weit weniger als 2 % des Mittels aufgenommen hat. Diese %-Angaben beziehen sich auf die Gesamtmenge an die mit radiojadmarkierten Mittel im Gesamtkörper der Ratte.
Die beigefügte Fig. 5 zeigt die Messung einer mit ¹³¹I TOP-(CMPEG)4 behandelten BD IX Ratte (auch hier Ovarialcarcinom). Es zeigt sich ein ähnliches Ergebnis wie das von Fig. 4.
Von der gesamten Körperaktivität an radioaktivem Jod finden sich nach 150 h etwa 23 % im Tumor, etwa 12 % in der Leber, etwa 5 % im Blut und etwa 3 - 4 % jeweils in den Muskeln und in der Schilddrüse. Der Rest ist natürlich, wie auch bei der Aufnahme von Fig 4, über den restlichen Körper verteilt.

[3] = tested on: experimentelle Tumoren und Xenotransplantate, human; experiment: Accumulation (concentration) of radiolabelled agents in experimental tumours and human xenografts; format: in vivo, Ratte; Nacktmaus; conditions: 300 µC = 11,1 MBq administered; 1a and 1c in all tumours/xenografts of the 2nd table, compound of Beispiel 2 only in Walker Carcinosarcom, Osteosarcom, Ovarialcarcinom (O-342)
From the text: Schließlich wurden für CT-Untersuchungen die folgenden Verbindungen gemäß Beispiel 2 hergestellt: • 4a) Tri-jod-phenol-CMPEG • 4b) Tri-jod-benzoesäure-AMPEG • 4c) Iodoxaminsäure-(AMPEG)₂ Die Anreicherung (Konzentrierung) dieser Mittel wurde an folgenden experimentellen Tumoren und an folgenden Tiermodellen geprüft:
Alle diese experimentellen Tumoren und Xenotransplantate wurden mit den Verbindungen a und c gemäß Beispiel 1 (also 1a und 1c) und drei davon, nämlich das Walker Carcinosarcom, das Osteosarcom und das Ovarialcarcinom (O-342) auch mit dem Diphosphonat gemäß Beispiel 2 untersucht.
as §1

[4] = BDIX rat with Ovarialcarcinom, 42 h after injection, 300 µC, % of total labelled agent in whole body
[5] = BD IX rat, Ovarialcarcinom, after 150 h, % of total body activity of radioactive iodine

Tetra-(4 Amino-phenoxy)-phthalocyanin -CMPEG [TAPPC-CMPEG]
"bleaching" [1]: kaum "bleaching" festzustellen
fotodynamische Aktivität [1]: sehr hohe fotodynamische Aktivität bis über 720 nm

¹³¹-I-Hydroxyphenylaminomethandiphosphonat- (CMPEG)₂ [Verbindung aus Beispiel 2]
Leber [2, 4]: ca. 10%
Schilddrüse [2, 4]: < 2%
im Tumor konzentriert [2, 4]: ca. 30 +/- 2%
Konzentration des Mittels an der gewünschten Stelle, also am Tumor [3]: ≥ 30%

¹³¹I-Tetra(hydroxyphenyl)-porphin-(CMPEG)₄ [1a]
im Blut [2, 5]: ~5%
im Tumor [2, 5]: ~23%
in den Muskeln [2, 5]: 3 - 4%
in der Leber [2, 5]: ~12%
in der Schilddrüse [2, 5]: 3 - 4%
Konzentration des Mittels an der gewünschten Stelle, also am Tumor [3]: ≥ 30%

¹¹¹-In-Tetra-(hydroxyphenoxy)-phthalocyanin-(CMPEG)₄ [1c]
Konzentration des Mittels an der gewünschten Stelle, also am Tumor [3]: ≥ 30%
